What all share (assay): receptor-Fc IP
In one assay the target is T1, VEGFR-2-Fc (UniProt P35968 20-322).
T1 construct: domain: first 3 Ig domains; conditioned supernatant of 293T cells; also called VEGFR-2-Fc fusion protein; not shown: Fc fragment of the pIg vector
In a few lines: (§1)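 Binding of ligand from sample supernatant measured by pentahistidine-antibody immunoprecipitation. IP mix: PBS with 1.5% BSA, 0.06% Tween 20, 3 μg/ml heparin and 400 ng/ml fusion protein, added 1:2 to sample supernatant.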

Another assay has as its target T2, VEGFR-1-Fc (UniProt P17948 27-338).
T2 construct: domain: first three Ig domains; expressed in Drosophila S2 cells, purified on Protein A sepharose; also called VEGFR-1-Fc fusion protein; not shown: Fc fragment from the Signal-pIgPlus vector
In a few lines: as §1

The target of another assay is T3, VEGFR-3-Fc (UniProt P35916 25-328).
T3 construct: domain: first three Ig domains; conditioned supernatant of 293T cells; also called VEGFR-3-Fc fusion protein; not shown: Fc fragment of the pIg vector
T3 sequence (looked up): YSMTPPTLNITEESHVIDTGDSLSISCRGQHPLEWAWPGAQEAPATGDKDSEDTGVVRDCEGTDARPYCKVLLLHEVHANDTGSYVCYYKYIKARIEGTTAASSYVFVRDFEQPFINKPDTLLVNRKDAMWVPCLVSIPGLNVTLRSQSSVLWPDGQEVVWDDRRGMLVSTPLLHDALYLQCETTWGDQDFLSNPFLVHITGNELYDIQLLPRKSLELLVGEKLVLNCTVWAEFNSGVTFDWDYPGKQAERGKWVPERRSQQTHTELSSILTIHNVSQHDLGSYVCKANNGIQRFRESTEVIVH
In outline: as §1

The record followed here is patent publication US20080058263A1 (published 2008).

T2 sequence (P17948 27-338): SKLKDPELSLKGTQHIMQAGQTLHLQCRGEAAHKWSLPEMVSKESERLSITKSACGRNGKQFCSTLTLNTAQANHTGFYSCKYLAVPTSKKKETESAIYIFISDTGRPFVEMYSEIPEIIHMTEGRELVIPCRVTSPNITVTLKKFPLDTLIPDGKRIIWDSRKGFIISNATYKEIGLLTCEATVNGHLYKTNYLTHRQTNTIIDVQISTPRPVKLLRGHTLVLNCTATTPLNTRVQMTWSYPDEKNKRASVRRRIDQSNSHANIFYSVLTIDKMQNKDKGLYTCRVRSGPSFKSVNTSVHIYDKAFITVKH
T1 sequence (P35968 20-322): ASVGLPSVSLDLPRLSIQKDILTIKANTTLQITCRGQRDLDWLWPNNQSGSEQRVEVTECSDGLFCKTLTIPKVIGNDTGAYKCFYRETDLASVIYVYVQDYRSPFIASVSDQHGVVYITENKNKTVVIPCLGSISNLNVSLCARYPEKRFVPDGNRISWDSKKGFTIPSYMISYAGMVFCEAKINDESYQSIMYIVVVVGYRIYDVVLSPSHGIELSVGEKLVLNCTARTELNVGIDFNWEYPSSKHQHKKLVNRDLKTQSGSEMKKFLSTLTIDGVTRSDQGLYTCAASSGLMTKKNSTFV

B1: 74-8 (ligand)
chain: GQNHHEVVKSIDNEWRKTQCMPREVCIDVGKEFGVATNTFFKPSCVPLMRCGGCCNSEGLQCMNTSTSYLSKTLFEIKPHQGQHIGEMSFANHTSCRCMSKLD
In the case of B1, the binding result is listed as “binds” with VEGFR-2-Fc, “no binding” in the assay with VEGFR-1-Fc and “no binding” in the assay with VEGFR-3-Fc.

B2: 82-5 (ligand)
chain: AHYNTEILKFMDVYQRSYCHPIETLVDIFQEFGVATNTFFKPPCVSVYRCGGCCNDEGLECVPTEESNITMQIMRIKPHQGQHIGEMSFANHTSCRCMSKLD
As to B2, the binding result is reported as “no binding” in the assay with VEGFR-2-Fc, “binds” with VEGFR-1-Fc and “no binding” with VEGFR-3-Fc.

B3: 74-10 (ligand)
chain: GQNHHEVVKSIDNEWRKTQCMPREVCIDVGKEFGVATNTFFKPSCVPLMRCGGCCNDEGLECMNTSTSYLSKTLFEITVPLSQGPKPVTISFLQHNKCECRPKKD
For the molecule B3, the figures for the binding result with VEGFR-2-Fc, with VEGFR-1-Fc and with VEGFR-3-Fc were “binds”, “no binding” and “no binding”, respectively.

B4: 74-12 (ligand)
chain: GQNHHEVVKSIDNEWRKTQCMPREVCIDVGKEFGVATNTFFKPSCVPLMRCGGCCNSEGLQCMNTSTSYLSKTLFEITVPLSQGPKPVTISFLQHNKCECRPKKD
For B4, the figures for the binding result with VEGFR-2-Fc, with VEGFR-1-Fc and in the assay with VEGFR-3-Fc were “binds”, “no binding” and “no binding”, respectively.

B5: 82-9 (ligand)
chain: AHYNTEILKFMDVYQRSYCHPIETLVDIFQEFGVATNTFFKPPCVSVYRCGGCCNDEGLECVPTEESNITMQIMRITVPLSQGPKPVTISFLQHNKCECRPKKDL
notes: clone entry
Regarding B5, the binding result with VEGFR-2-Fc, in the assay with VEGFR-1-Fc and with VEGFR-3-Fc was “binds” each time.

B6: 71-11 (ligand)
chain: GQNHHEVVKSIDNEWRKTQCMPREVCIDVGKEYPDEIEYIFKPSCVPLMRCGGCCNSEGLQCVPTEESNITMQIMRITVPLSQGPKPVTISFLQHNKCECRPKKD
As to B6, the binding result with VEGFR-2-Fc, in the assay with VEGFR-1-Fc and with VEGFR-3-Fc was “no binding” each time.

B7: 73-15 (ligand)
chain: GQNHHEVVKSIDNEWRKTQCMPREVCIDVGKEYPDEIEYIFKPPCVSVYRCGGCCNSEGLQCVPTEESNITMQIMRITVPLSQGPKPVTISFANHTSCRCMSKLD
Take B7: the binding result was “binds” with VEGFR-2-Fc, “no binding” with VEGFR-1-Fc and “no binding” in the assay with VEGFR-3-Fc.

B8: 33-11 (ligand)
chain: GQNHHEVVKSIDNEWRKTQCMPIETLVDIFQEYPDEIEYIFKPPCVSVYRCGGCCNSEGLQCVPTEESNITMQIMRITVPLSQGPKPVTISFLQHNKCECRPKKD
Turning to B8, the binding result with VEGFR-2-Fc, with VEGFR-1-Fc and in the assay with VEGFR-3-Fc was “no binding” in each case.

B9: 31-3 (ligand)
chain: GQNHHEVVKSIDNEWRKTQCMPIETLVDIFQEYPDEIEYIFKPSCVPLMRCGGCCNDEGLECVPTEESNITMQIMRITVPLSQGPKPVTISFLQHNKCECRPKKD
With B9, the binding result with VEGFR-2-Fc, in the assay with VEGFR-1-Fc and with VEGFR-3-Fc was “no binding” in each case.

B10: 71-13 (ligand)
chain: GQNHHEVVKSIDNEWRKTQCMPREVCIDVGKEYPDEIEYIFKPSCVPLMRCGGCCNDEGLECVPTEESNITMQIMRITVPLSQGPKPVTISFANHTSCRCMSKLD
Consider B10, for which the binding result with VEGFR-2-Fc, with VEGFR-1-Fc and with VEGFR-3-Fc was “no binding” in each case.

B11: 21-11 (ligand)
chain: AHYNTEILKSIDNEWRKTQCMPREVCIDVGKEYPDEIEYIFKPSCVPLMRCGGCCNSEGLQCVPTEESNITMQIMRITVPLSQGPKPVTISFLQHNKCECRPKKD
Consider B11, for which the binding result with VEGFR-2-Fc, with VEGFR-1-Fc and with VEGFR-3-Fc was “no binding” each time.

B12: 31-11 (ligand)
chain: GQNHHEVVKSIDNEWRKTQCMPIETLVDIFQEYPDEIEYIFKPSCVPLMRCGGCCNSEGLQCVPTEESNITMQIMRITVPLSQGPKPVTISFLQHNKCECRPKKD
For the molecule B12, the binding result in the assay with VEGFR-2-Fc, in the assay with VEGFR-1-Fc and in the assay with VEGFR-3-Fc was “no binding” throughout.

B13: 23-11 (ligand)
chain: AHYNTEILKSIDNEWRKTQCMPREVCIDVGKEYPDEIEYIFKPPCVSVYRCGGCCNSEGLQCVPTEESNITMQIMRITVPLSQGPKPVTISFLQHNKCECRPKKD
As for B13, the binding result with VEGFR-2-Fc, with VEGFR-1-Fc and with VEGFR-3-Fc was “no binding” each time.

B14: 74-11 (ligand)
chain: GQNHHEVVKSIDNEWRKTQCMPREVCIDVGKEFGVATNTFFKPSCVPLMRCGGCCNSEGLQCVPTEESNITMQIMRITVPLSQGPKPVTISFLQHNKCECRPKKD
Turning to B14, the binding result in the assay with VEGFR-2-Fc, in the assay with VEGFR-1-Fc and with VEGFR-3-Fc was “no binding” each time.

B15: 71-15 (ligand)
chain: GQNHHEVVKSIDNEWRKTQCMPREVCIDVGKEYPDEIEYIFKPSCVPLMRCGGCCNSEGLQCVPTEESNITMQIMRITVPLSQGPKPVTISFANHTSCRCMSKLD
On to B15, for which the binding result in the assay with VEGFR-2-Fc, with VEGFR-1-Fc and with VEGFR-3-Fc was “no binding” in each case.

B16: 12-5 (ligand)
chain: GQNHHEVVKFMDVYQRSYCHPIETLVDIFQEFGVATNTFFKPPCVSVYRCGGCCNDEGLECVPTEESNITMQIMRIKPHQGQHIGEMSFANHTSCRCMSKLDLVF
B16: the binding result is on record as “no binding” with VEGFR-2-Fc, “binds” in the assay with VEGFR-1-Fc and “no binding” with VEGFR-3-Fc.

B17: 12-1 (ligand)
chain: GQNHHEVVKFMDVYQRSYCHPIETLVDIFQEFGVATNTFFKPPCVSVYRCGGCCNDEGLECVPTEESNITMQIMRIKPHQGQHIGEMSFLQHNKCECRPKKDLVF
For the molecule B17, the binding result with VEGFR-2-Fc, with VEGFR-1-Fc and in the assay with VEGFR-3-Fc was “binds” in each case.

B18: 82-7 (ligand)
chain: AHYNTEILKFMDVYQRSYCHPIETLVDIFQEFGVATNTFFKPPCVSVYRCGGCCNSEGLQCVPTEESNITMQIMRIKPHQGQHIGEMSFANHTSCRCMSKLDLVF
notes: clone entry
Take B18: the binding result with VEGFR-2-Fc, with VEGFR-1-Fc and with VEGFR-3-Fc was “binds” throughout.

B19: 73-7 (ligand)
chain: GQNHHEVVKSIDNEWRKTQCMPREVCIDVGKEYPDEIEYIFKPPCVSVYRCGGCCNSEGLQCVPTEESNITMQIMRIKPHQGQHIGEMSFANHTSCRCMSKLD
In the case of B19, the results for the binding result with VEGFR-2-Fc, with VEGFR-1-Fc and in the assay with VEGFR-3-Fc were “binds”, “no binding” and “no binding”, respectively.

B20: 63-1 (ligand)
chain: GQNHHEVVKFMDVYQRSYCHPREVCIDVGKEYPDEIEYIFKPPCVSVYRCGGCCNDEGLECVPTEESNITMQIMRIKPHQGQHIGEMSFLQHNKCECRPKKD
Turning to B20, the binding result is reported as “binds” with VEGFR-2-Fc, “binds” in the assay with VEGFR-1-Fc and “no binding” with VEGFR-3-Fc.

B21: 22-16 (ligand)
chain: AHYNTEILKSIDNEWRKTQCMPREVCIDVGKEFGVATNTFFKPPCVSVYRCGGCCNSEGLQCMNTSTSYLSKTLFEITVPLSQGPKPVTISFANHTSCRCMSKLDLVFEQKLISEEDLNSAVDHHHHHH
Turning to B21, the binding result with VEGFR-2-Fc was “binds”; with VEGFR-1-Fc it was “no binding”; with VEGFR-3-Fc it was “binds”.

B22: 62-13 (ligand)
chain: GQNHHEVVKFMDVYQRSYCHPREVCIDVGKEFGVATNTFFKPPCVSVYRCGGCCNDEGLECVPTEESNITMQIMRITVPLSQGPKPVTISFANHTSCRCMSKLD
As to B22, the binding result is on record as “binds” with VEGFR-2-Fc, “no binding” with VEGFR-1-Fc and “no binding” with VEGFR-3-Fc.

B23: 63-9 (ligand)
chain: GQNHHEVVKFMDVYQRSYCHPREVCIDVGKEYPDEIEYIFKPPCVSVYRCGGCCNDEGLECVPTEESNITMQIMRITVPLSQGPKPVTISFLQHNKCECRPKKD
In the case of B23, the binding result in the assay with VEGFR-2-Fc, in the assay with VEGFR-1-Fc and with VEGFR-3-Fc was “no binding” in each case.
